Test [1] concerns the target T1, human IL-1 beta (PeproTech 200-01B) (human, UniProt P01584 117-269).
T1 construct: As printed it covers only the N-terminal part of the precursor, so it was not used; also called huIL-1 beta; IL1β
The test is described as follows: SPR, Fab captured via anti-Fab antibody, human IL-1beta injected, 1:1 Langmuir fit. The procedure: (§1) An anti-Fab capturing antibody (GE Healthcare 28958325) was immobilized to a Series S Sensor Chip C1 (GE Healthcare 29104990) using standard amine coupling chemistry resulting in a surface density of approximately 500 resonance units (RU). The bispecific anti-VEGF/anti-IL-1beta Fab fragment was captured to the surface with resulting capture levels of approximately 20 RU. A dilution series ranging from 0.74 to 60 nM (1:3 dilution) of either human IL-1 beta (PeproTech 200-01B) or cynomolgus IL-1 beta (Sino Biological 90010-CNAE) was injected for 90 s, dissociation was monitored for at least 600 s at a flow rate of 30 μl/min. The surface was regenerated by two consecutive injections of 10 mM Glycine pH 2.1 for 60 s each. Bulk refractive index differences were corrected by subtracting blank injections and by subtracting the response obtained from the control flow cell without captured bispecific anti-VEGF/anti-IL-1beta Fab fragment. Curve fitting was performed using the 1:1 Langmuir binding model within the Biacore evaluation software.
(§2) Binding kinetics to VEGF and IL-1beta for the candidate antibodies were assessed as described in Example 3 using the indicated bispecific anti-VEGF/anti-IL-1beta Fab fragments (amino acid sequence as illustrated in Table 3). For comparison, antigen binding kinetics of prior art anti-VEGF/anti-IL-1beta antibody 0032, a full length IgG antibody, as disclosed in WO2016/075034 are depicted.
(In general: In SPR one partner is held on a chip, and binding of the other changes the refractive index at the surface.)

The target in test [2] is T2, cynomolgus IL-1 beta (Sino Biological 90010-CNAE) (cynomolgus, UniProt P79182 117-268).
T2 sequence (looked up): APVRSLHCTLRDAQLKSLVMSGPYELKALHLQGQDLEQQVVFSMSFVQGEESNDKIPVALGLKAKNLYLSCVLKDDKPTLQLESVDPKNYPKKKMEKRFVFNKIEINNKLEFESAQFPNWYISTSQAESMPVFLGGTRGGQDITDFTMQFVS
The test is described as follows: SPR, Fab captured via anti-Fab antibody, cynomolgus IL-1beta injected, 1:1 Langmuir fit. As for the experimental part:
as §1, §2

For test [3], the target named is T1, human IL-1 beta (PeproTech 200-01B). The test is described as follows: SPR competition: Fab preincubated with 50 nM IL-1beta, injected over immobilised IL-1bR1 (competitor); in presence of VEGF. The procedure: (§3) As running and dilution buffer, HBS-P+(10 mM HEPES, 150 mM NaCl pH 7.4, 0.05% Surfactant P20) was used.
(§4) For assessing VEGF-receptor binding inhibition, a final concentration of 200 nM of R07200394 or 400 nM antibody 0032 was preincubated with 50 nM VEGF121. For assessing IL-1beta-receptor binding inhibition, a final concentration of 200 nM of R07200394 or 200 nM antibody 0032 was with preincubated with 50 nM IL-1beta. Samples were diluted (1:2) in the corresponding 50 nM VEGF121 or IL-1beta solution.
(§5) The antibody/ligand mixtures were injected onto the VEGFR2 or IL-1R1 surface for 60 s at a flow rate of 5 μl/min. After a dissociation phase for 60 s, the VEGFR2 surface was regenerated by injecting 5 mM NaOH for 60 s, whereas the IL-1R1 surface was regenerated by injecting 10 mM Glycine pH 3.0 followed by 5 mM NaOH for 60 s each. Bulk refractive index differences were corrected by subtracting blank injections and by subtracting the response obtained from the blank control flow cell. For evaluation, the binding response 5 seconds after inject end was taken. The derived response in RU was transformed to a binding response relative to the initial signal corresponding to the ligand(s) without antibody. IC50 values were calculated using a 4 parameter logistic model (XLfit, ID Business Solutions Ltd.)

The target of test [4] is T3, human VEGF121 (human, UniProt P15692-9 27-147).
T3 construct: No tag is stated for these preparations; Kept apart from VEGF121-His; also called HuVEGF121
T3 sequence (looked up): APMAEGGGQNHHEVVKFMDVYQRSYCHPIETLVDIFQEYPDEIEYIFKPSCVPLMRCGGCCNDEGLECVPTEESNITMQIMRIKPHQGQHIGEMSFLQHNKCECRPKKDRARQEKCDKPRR
The test is described as follows: SPR competition: Fab preincubated with 50 nM VEGF121, injected over immobilised hVEGFR2 (competitor); in presence of IL-1beta. The procedure: as §3, §4, §5

Test [5] has as its target T3, human VEGF121. Nature of the test: SPR competition: Fab (from 200 nM, 1:2 dilutions) preincubated with 50 nM VEGF121, injected over immobilised hVEGFR2 (competitor); without IL-1beta. The procedure: as §3, §4, §5

For orientation: Kd means the free concentration of one partner at which half of the binding sites on the other are occupied at equilibrium, for simple one-to-one binding. Read a high Kd as weaker binding. What is called koff is a measure of how fast the partners let go of each other. A higher koff goes with fast dissociation. In general, kon refers to a measure of how fast the partners come together. Higher therefore signals fast association. Broadly, the t½ is the time in which the quantity being followed falls by half. What is called IC50 is the point on the concentration scale where inhibition reaches its midpoint.

B1: bispecific anti-VEGF/anti-IL-1beta Fab fragment RO7200394 (Fab, V domains shown)
VH: DEQLVESGGGLVKPGGSLRLSCAAEGMVFKWNDMSWVRQAPGKGLEWVGSISKKGDHKYLNTKFIGRFTISRDNEKDTLYLQMNSLRAEDTAVYYCAKDVGFFDIWGQGTLVTVSS
VL: AIYMHQEPSSLSASVGDRVTITCHGSYWLSSLVAWYQQKPGKAPKLLIYDAKYKHLGVPSRFSGSKEDQEFTLTISSLQPEDFATYYCQQYRYHPYTFGHGTKVEIKR
notes: same variable domains as 1HVL12.85; also called R07200394
On to B1, for which, in test [1], binding was put at a Kd of 0.021 nM, the off-rate (koff) came to 0.000102 s⁻¹, the kon is 4.73e+06 M⁻¹ s⁻¹ and the “t 1/2” value is 1.9 h. Also, in test [2], the affinity, expressed as Kd, was 0.027 nM; the koff worked out at 7.94e-05 s⁻¹; the kon stood at 2.97e+06 M⁻¹ s⁻¹; the t½ stood at 2.43 h. For the same molecule, in test [3], the half-maximal inhibitory concentration (IC50) was 24 nM. Moreover, the IC50 with human VEGF121 [4] worked out at 39 nM. In the test with human VEGF121 [5], this molecule gave an IC50 of 44 nM.

Values taken from patent publication US20200199214A1 (Hoffmann-La Roche, published 2020).
